Non-standard residues stand in square brackets, D forms with d. *: point of attachment. Biotin = O=C1N[C@H]2[C@H](CS[C@H]2CCCCC(=O)*)N1; pT = C[C@@H](OP(=O)(O)O)[C@H](N)C(=O)O
Columns and labels:
Assay in all cases: ELISA; competition: FHA clone binding to immobilized phosphorylated Akt1 peptide in the presence of free phosphorylated peptide; IC50
FHA variant B3 (yeast) = molecular target: FHA variant B3 (yeast)
FHA variant E1 (yeast) = molecular target: FHA variant E1 (yeast)
[1] = molecular target: FHA variant E12 (Akt1-pTBD) (yeast)
FHA variant H11 (yeast) = molecular target: FHA variant H11 (yeast)

Biotin-KDGATMK[pT]FCGTPEY-NH2 (not fully specified (residue 12)) [Akt1-pT308 peptide]
IC50 (FHA variant B3 (yeast)): 100 µM
IC50 (FHA variant E1 (yeast)): 1.95 µM
IC50 [1]: 0.045 µM
IC50 (FHA variant H11 (yeast)): 0.09 µM

Reference: paper PMC6274716
